In patent publication US20220002701A1:

Experiments:
[1] = target: SARS-CoV-2 S protein containing D614 with the C-terminal 19 residues of the cytoplasmic tail deleted, on MLV pseudovirus (SARS-CoV-2) (UniProt P0DTC2); experiment: cell-based or functional assay
[2] = target: stabilized soluble SARS-CoV-2 S ectodomain trimer in the pre-fusion conformation (SARS-CoV-2; bacteriophage T4) (UniProt P0DTC2)

Chain of ACE2615-LL-foldon (Q9BYF1 18-615, tags left off, one chain of several): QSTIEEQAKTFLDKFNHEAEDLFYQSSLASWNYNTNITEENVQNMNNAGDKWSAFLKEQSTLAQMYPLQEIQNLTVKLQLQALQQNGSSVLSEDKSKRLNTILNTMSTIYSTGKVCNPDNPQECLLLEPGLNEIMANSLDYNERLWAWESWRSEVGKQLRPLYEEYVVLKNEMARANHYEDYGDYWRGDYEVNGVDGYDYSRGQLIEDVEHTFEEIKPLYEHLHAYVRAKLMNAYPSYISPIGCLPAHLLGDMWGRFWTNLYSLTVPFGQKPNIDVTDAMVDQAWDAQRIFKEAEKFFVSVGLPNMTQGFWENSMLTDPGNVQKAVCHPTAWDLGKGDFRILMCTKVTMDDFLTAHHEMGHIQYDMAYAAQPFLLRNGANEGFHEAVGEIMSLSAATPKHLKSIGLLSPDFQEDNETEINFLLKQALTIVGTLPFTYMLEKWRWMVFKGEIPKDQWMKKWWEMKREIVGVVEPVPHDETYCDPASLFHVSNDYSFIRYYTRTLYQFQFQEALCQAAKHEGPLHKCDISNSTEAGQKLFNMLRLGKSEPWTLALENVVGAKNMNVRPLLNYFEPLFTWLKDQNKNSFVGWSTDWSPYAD

“ACE2615-LL-foldon (from UniProt Q9BYF1 18-615; P10104 458-484) (receptor)” gave an IC50, inhibition of MLV-based pseudovirus infection of ACE2-expressing cells [1] of 0.6 µg/mL, a Kd [2] of 0.624 nM and a ka2 [2] of 3.3. The kdis2 [2] was 0.365, the koff [2] was 8.26e-05 s⁻¹ and the kon [2] was 133000 M⁻¹ s⁻¹.
